The test concerns the target T1, Cauliflower mosaic virus translation transactivator/viroplasmin (TAV), strain CM1841, fused to the Gal4 … (Cauliflower mosaic virus (strain CM1841), UniProt P03558 1-520).
T1 sequence: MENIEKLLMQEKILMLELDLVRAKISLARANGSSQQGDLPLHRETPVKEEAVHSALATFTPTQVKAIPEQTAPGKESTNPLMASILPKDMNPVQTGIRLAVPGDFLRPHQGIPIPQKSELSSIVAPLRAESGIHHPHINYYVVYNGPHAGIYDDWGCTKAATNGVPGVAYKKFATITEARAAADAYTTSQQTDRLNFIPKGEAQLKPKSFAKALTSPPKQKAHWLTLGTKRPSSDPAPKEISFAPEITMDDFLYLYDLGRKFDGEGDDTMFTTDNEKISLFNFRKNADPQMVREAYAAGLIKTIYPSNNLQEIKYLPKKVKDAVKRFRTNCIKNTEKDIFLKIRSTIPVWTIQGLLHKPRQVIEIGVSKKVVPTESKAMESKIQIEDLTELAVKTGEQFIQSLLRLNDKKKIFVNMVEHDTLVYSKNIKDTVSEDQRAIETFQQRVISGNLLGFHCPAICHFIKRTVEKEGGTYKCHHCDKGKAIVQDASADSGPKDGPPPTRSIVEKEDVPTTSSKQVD
As to the kind of experiment: cell-based or functional assay.

This note sets out measurements from article PMC6504953, “Cauliflower mosaic virus transactivator protein (TAV) can suppress nonsense-mediated decay by targeting VARICOSE, a scaffold protein of the decapping complex” (Scientific Reports, 2019).

B1: VARICOSE (VCS), entire protein, fused to the Gal4 activation domain (natural protein, A. thaliana, UniProt Q9LTT8 1-1344, looked up)
chain: MASSPGNTNPHNTPPFDLGILFKPSSNPYPPPAASYPPPTGPFLHNQYDQQHYAPPGISAQPSPVTQQQQDVSSSSAATNLHPQRTLSYPTPPLNLQSPRSNHNPGTHILALLNNTNNGAPVANQEPSHQLPVVNHNEIARSFPGGSGPIRVPSCKLPKGRRLIGEHAVYDVDVRLQGEIQPQLEVTPITKYGSDPQLVVGRQIAVNKVYICYGLKGGNIRVLNINTALRSLFRGHSQRVTDMAFFAEDVDMLASVSLDGKVFVWKISEGSEGEDQPQITGKIVLALQILGEEDTKHPRVCWHCHKQEILVVSIGKHVLRIDTTKVGRGEVFSAEAPLQCPLDKLIDGVQIVGKHDGEVTDLSMCQWMTTRLVSSSVDGTIKIWQDRKAQPLVVLRPHDGHPVSSATFVTSPERPDHIILITGGPLNREMKIWVSAGEEGWLLPADAESWRCTQTLDLKSSTEPRAEEAFFNQVIALSEAGLLLLANAKRNALYAVHLDYGSSPVGTRMDYLSEFTVTMPILSFIGTNDPPEEPIVKVYCVQTLAIQQYTLDLCLCLPPPIENMGLEKSDSSVSREANLVEGMSEPSGLKPTDLPSVDSVPKPSIIVNRSESANKLSFPSAEATSQAIVPPNGEPKTSGLPSQTSGAGSAYATLPQLPLSPRLSSKLSGYHTPVEAIEPVIPHHELGGKTPSADYSVDRQMDAVGERNLDVSSVEEISRSKDSNVTPDDDVSGMRSPSAFFKHPTHLVTPSEILMGVSSAEASITTEDRRDRDANIQDVNNDPRDTEVEVKEISEARSTQNGEINDHDETENCTSENREKVFCSQVSNLSTEMARDCYPSTEGTFIPGESKAYGQPIKAGDESGVDSRGGPAKLLKGKKQKAKNSQGPGLSSTSSNVANLADSFNEQSQSLSHPMTDLLPQLLAMQETMNQVMASQKEMQRQLSNAATGPIGKESKRLEVALGRMIEKSSKSNADALWARIQEETVKNEKALRDHAQQIVNATTNFMSKELNAMFEKTIKKELAAIGPALARSVVPVIEKTVSSAITESFQRGIGDKAVNQLDKSVNIKLEATVARQIQAQFQTSGKQALQEGLRSSVESSVIPSFEKACKAMFDQIDSAFQKGIAEHTNAAQQRFDSGHSQLAHTLKESITSASSVAQALSRELAETQRNLLALAAAGANSGGSNSLVTQLSGGPLGALLEKVEAPMDPTTELSRLISERKYEESFTSALQRSDVSIVSWLCSQVDLRGLLAMNPLPLSQGVLLSLLQQLACDISKDTSRKLAWMTDVVAAINPSDQMIAVHARPIFEQVYQILHHHRNAPGSDVSAIRLIMHVINSMLMGCK
For B1, the “GFPabc mRNA level by qRT-PCR in N. benthamiana leaves co-infiltrated with pGFPabc, pVCS and pTAV against pTAV alone” value was determined as 3 fold.
